Positions count from the first letter of the chain named. Entries after “also recorded” stand apart in the source; their conditions may differ.
Legend:
[1] = test system: GFP-positive and Snail-positive B16-F10 tumor cells; assay: Snail-positive B16-F10 bone metastasis model, intraperitoneal administration (Example 18); format: in vivo, mouse; conditions: intraperitoneal 10 mg/kg on days 5 and 10; FIG. 106A
Source text: 1. Experiment Group (n=5) • 1. No treatment (0.9% NaCl as a sham) • 2. Control IgG (anti-DNP) • 3. Anti-FSTL1 Clone #6-55 • 4. Anti-FSTL1 Clone #7-34 • 5. Anti-FSTL1 Clone #8-1 […]
• Effects on the growth of subcutaneous tumor (calculation of tumor volume by tumor size measurement): measured 7, 11, and 14 days after tumor implantation (FIG. 106B) • Effects on bone metastasis (GFP-positive tumor cells in bone marrow or the spleen) (FIGS. 106A and 106C) • Effects on MSC expansion (CD45− negative cells in bone marrow or the spleen) (FIGS. 106A and 106C) • Effects on weight loss (FIG. 106A) • Effects on the expansion of immunosuppressive Treg cells (CD4-positive and Foxp3-positive cells in the spleen) (FIG. 106C) • Other immunosuppressive properties (FIG. 106C)
In Example 17, the antibody was administered into tumor according to the purpose of “inhibiting metastasis from a primary focus to bone” as previously conducted by the present inventors. […] Specifically, antitumor effects and immunosuppression-mitigating effects were comparatively analyzed by the intraperitoneal administration (systemic administration) of the anti-FSTL1 antibody using bone metastasis models in which mouse melanoma cells (B16-F10) forced to express Snail were subcutaneously and intravenously transplanted in C57BL/6N mice. […]

[2] = test system: GFP+F10-snail+ tumor cells; assay: In vivo drug efficacy of each anti-FSTL1 antibody clone, GFP+F10-snail+ tumor model (Example 32); design: species or system mouse; conditions: intraperitoneal 10 mg/kg on days 4 and 7; vs control antibody
Description: • Day 0: transplantation of GFP+F10-snail+ tumor cells (3×10^5 cells subcutaneously & 2×10^4 cells intravenously) • Day 4: intraperitoneal administration of the antibody (first dose, 10 mg/kg) • Day 7: intraperitoneal administration of the antibody (second dose, 10 mg/kg)
Subcutaneous tumor was measured 4, 7, 10, 14, 17, 20, and 23 days after tumor cell transplantation.
Experiment Group (n=5) Control IgG (anti-DNP mAb) • #6-55 • #7 • #10 • #13 • #33
• Day 0: transplantation of GFP+F10-snail+ tumor cells (3×10^5, cells subcutaneously & 2×10^4 cells intravenously) • Day 4: intraperitoneal administration of the antibody (first dose, 10 mg/kg) • Day 7: intraperitoneal administration of the antibody (second dose, 10 mg/kg)

[3] = target: T1, FSTL1 (Homo sapiens, UniProt Q12841); assay: Inhibition of activation of tumor cells by FSTL1, RANKL- and CCR2-positive cells in human pancreatic cancer cell line Panc1 (Examples 5, 7, 9, 10, 11); format: cell-based; design: purchased R&D Systems, Inc. 1694-FN-050; conditions: Example 9; FSTL1 20 ng/mL, antibody 10 μg/mL, 3 days
T1 sequence (Q12841 21-308): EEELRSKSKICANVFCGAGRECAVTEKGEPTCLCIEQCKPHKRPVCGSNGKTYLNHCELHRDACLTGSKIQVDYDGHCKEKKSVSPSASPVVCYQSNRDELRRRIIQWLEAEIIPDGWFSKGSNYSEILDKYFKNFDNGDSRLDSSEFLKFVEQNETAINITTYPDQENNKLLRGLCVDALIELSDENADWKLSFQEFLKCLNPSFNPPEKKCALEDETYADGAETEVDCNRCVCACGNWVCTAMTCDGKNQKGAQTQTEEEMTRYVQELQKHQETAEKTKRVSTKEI

[4] = test system: C57/BL/6 mouse-derived bone marrow cells; assay: MSC induction inhibition test using mouse bone marrow cells, FSTL1 stimulation (Example 27); format: cell-based; conditions: FSTL1 20 ng/mL; antibody 10 μg/mL; 8 days; FIG. 21A
Description: (§1) In this Example, the inhibitory activity of the anti-FSTL1 antibody was confirmed in an experimental system of mesenchymal stem cell induction while a FSTL1 inhibitory effect on MSC expansion induced not only by FSTL1 but by Snail+ tumor cells was also evaluated. For specific operation, each antibody (10 μg/mL) was added to systems in which C57/BL/6 mouse-derived bone marrow cells were stimulated with FSTL1 (20 ng/mL) or a culture supernatant of tumor cells. After culture for 8 days under stimulation, cell fraction CD45(−) cells (MSCs) containing MSCs at a high rate and CD45(−)CD146(+)ALCAM(+) cells (sMSCs) increasing in number in association with cancer metastasis were analyzed by flow cytometry in the same way as in Example 14, and the number of cells per culture system was counted. In this Example, mouse immunoglobulin manufactured by BioLegend, Inc. (#401408, Cone MG1-45) was used as a control antibody.

[5] = test system: C57/BL/6 mouse-derived bone marrow cells; assay: MSC induction inhibition test using mouse bone marrow cells stimulated with FSTL1 (Example 27); format: cell-based; conditions: FSTL1 20 ng/mL, antibody 10 μg/mL, 8 days; flow cytometry; FIG. 115A
Description: as §1

B1: #6-55: chicken-mouse chimeric anti-FSTL1 antibody clone; variable regions SEQ ID NO: 783 (light), 785 (heavy) (antibody, V domains shown)
VH: AVTLDESGGGLQTPGGALSLVCKGSGFTFTSVTMQWVRQAPGKGLEWVASVCSGSSTYYAPAVKGRATISRDNGQSTVRLQLSNLRPEDTGTYYCAKIAGRARWSCTSAAYNIDAWGHGTEVIVSS
VL: ASTQPSSVSAIPGETVKITCSGGGNNYGWYQQRSPGSAPVTVIYYNDNRPSNIPSRFSGSTSGSTSTLTITGVQADDEAIYYCGSWDSNTDSGIFGAGTTLTVL
modifications: mouse constant regions
anti-weight loss effect [1]: confirmed | mouse survival period (life-prolonging effect) [2]: statistically significant life-prolonging effect | suppressive activity against subcutaneous tumor growth [2]: statistically significant suppressive activity | inhibitory activity against the expansion of RANKL-positive cells and CCR2-positive cells [3]: higher inhibitory activity; also recorded: exhibited inhibitory activity

B2: #13: chicken-mouse chimeric anti-FSTL1 antibody clone; variable regions SEQ ID NO: 815 (light), 817 (heavy) (antibody, V domains shown)
VH: AVTLDESGGGLQTPGGGLSLVCKASGFTFSSVTMQWVRQAPGKGLEWVASICSGSSTYYGPAVKGRATISRDNGQNTVRLQLNNLRAEDTATYYCAKIVGRGRWSCTSAAYNIDAWGHGTEVIVSS
VL: ASTQPSSVSANPGETVKITCSGGGNNYGWYQQKSPGSAPVTVIYNNNNRPSNIPSRFSGSKSGSTNTLTITGVQAEDEAVYYCGSYDSSSDSGIFGAGTTLTVL
modifications: mouse constant regions
MSC induction inhibitory activity (CD45(−) MSCs, CD45(−)CD146(+)ALCAM(+) sMSCs) [4]: strong inhibitory effect equivalent to or higher than that of #6-55 | MSC induction inhibitory effect [5]: strong inhibitory effect equivalent to or higher than that of #6-55

B3: #5-8: chicken-mouse chimeric anti-FSTL1 antibody clone; variable regions SEQ ID NO: 771 (light), 773 (heavy) (antibody, V domains shown)
VH: AVTLDESGGGLQTPGGGLSLVCKGSGFTFSSFNMFWVRQAPGKGLEWVAGIGKDGVPKYGTAVDGRATISKDNGQSTMRLQLNNLRAEDTGTYFCAKAAGGCSYDWCGIYTGDIDTWGHGTEVIVSS
VL: ASTQPSSVSANPGEAVKITCSGGSGSYYGWYQQKSPGSAPVTVIYNNNQRPSDIPSRFSGSKSGSTATLTITGVQAEDEAVYFCGGYDSSTGHGGIFGAGTTLTVL
modifications: mouse constant regions
inhibitory activity against the expansion of RANKL-positive cells and CCR2-positive cells [3]: higher inhibitory activity; also recorded: exhibited inhibitory activity

B4: #8-1: chicken-mouse chimeric anti-FSTL1 antibody clone; variable regions SEQ ID NO: 791 (light), 793 (heavy) (antibody, V domains shown)
VH: B3 VH with G17A, T61A, T111A
VL: B3 VL with T91S
modifications: mouse constant regions
anti-weight loss effect [1]: confirmed

B5: #33: chicken-mouse chimeric anti-FSTL1 antibody clone; variable regions SEQ ID NO: 823 (light), 825 (heavy) (antibody, V domains shown)
VH: AVTLDESGGGLQTPGGGLSLVCKASGFTFSSFNMNWVRQAPGKGLEYVAEISGTGSSTYYGSAVKGRATISRDNGQSTVRLQLNNLRAEDTATYFCARGDGAYSIDAWGHGTEVIVSS
VL: ASTQPSSVSANPGETVEITCSGDSSYYGWFQQKSPGSAPVTVIYDNTNRPSDIPSRFSGSKSGSTATLTITGVRAEDEAVYYCGGYDSSTYDGIFGAGTTLTVL
modifications: mouse constant regions
MSC induction inhibitory activity (CD45(−) MSCs, CD45(−)CD146(+)ALCAM(+) sMSCs) [4]: strong inhibitory effect equivalent to or higher than that of #6-55; also recorded: high MSC induction inhibitory activity equivalent to or higher than that of #6-55 | MSC induction inhibitory effect [5]: strong inhibitory effect equivalent to or higher than that of #6-55 | mouse survival period (life-prolonging effect) [2]: therapeutic effects equal to or higher than those of #6-55

From patent US20180021429A1, “ANTICANCER AGENTS OR ANTIMETASTATIC AGENTS USING FSTL1 AND COMBINATION DRUG THEREOF” (PHARMA FOODS INTERNATIONAL CO., LTD., priority 2015, published 2018)
